The supplement of paper PMC10724198
± gives the standard deviation of the averaged measurements.

How the values were obtained:
Saccharomyces cerevisiae [1] = assay: protein stability index of tFT-peptide fusion (C-terminal peptide) (PSI (0-1 scale)); higher = more stable (slower turnover)
Experimental: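 MPS profiling in S. cerevisiae of the tFT-X12 degron library: putative degron peptides plus stable controls, 12 aa, fused to the C-terminus of a sfGFP-mCherry timer. Cells are FACS-sorted into 8 mCherry/sfGFP bins and deep-sequenced. PSI runs from 0 (unstable) to 1 (stable). Backgrounds are wild type, das1Δ and doa10Δ at 30 °C, and wild type, das1Δ, cdc34-1 and cdc53-1 at 37 °C; 2-3 technical replicates each.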

Saccharomyces cerevisiae [2] = assay: as above; conditions: genetic background: wild type; temperature: 30 C
[3] = genetic background: cdc34-1, temperature: 37 C
[4] = genetic background: cdc53-1, temperature: 37 C
[5] = genetic background: das1 deletion, temperature: 30 C
[6] = genetic background: das1 deletion, temperature: 37 C
[7] = genetic background: doa10 deletion, temperature: 30 C
[8] = genetic background: wild type, temperature: 30 C
[9] = genetic background: wild type, temperature: 37 C
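Further: PSI is a weighted mean of sequencing reads over stability bins, variants kept only with over 10 reads, mCherry proximal and sfGFP distal, peptide attached via GGGS linker.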

Sequence | protein stability index (Saccharomyces cerevisiae [1]; [3]) | protein stability index (Saccharomyces cerevisiae [1]; [4]) | protein stability index (Saccharomyces cerevisiae [1]; [5]) | protein stability index (Saccharomyces cerevisiae [1]; [6]) | protein stability index (Saccharomyces cerevisiae [1]; [7]) | protein stability index (Saccharomyces cerevisiae [1]; [8]) | protein stability index (Saccharomyces cerevisiae [1]; [9]) | protein stability index (Saccharomyces cerevisiae [2])
PLRRPPPRPPWP | 0.65 ± 0.025 | 0.7054 ± 0.0032 | 0.674 ± 0.024 | 0.7032 ± 0.003 | 0.69 ± 0.03 | 0.644 ± 0.025 | 0.687 ± 0.011 | 0.494 ± 0.036
CRRQLKVLKSMS | 0.581 ± 0.072 | 0.697 ± 0.025 | 0.653 ± 0.023 | 0.6892 ± 0.0061 | 0.148 ± 0.021 | 0.151 ± 0.03 | 0.31 ± 0.013 | 0.242 ± 0.039
LLYYQVFKTRRL | 0.674 ± 0.021 | 0.686 ± 0.037 | 0.63 ± 0.026 | 0.696 ± 0.034 | 0.3565 ± 0.0012 | 0.384 ± 0.022 | 0.5958 ± 0.0036 | 0.406 ± 0.25
RKGQNKKRNKIY | 0.7504 ± 0.0028 | 0.767 ± 0.019 | 0.659 ± 0.008 | 0.7331 ± 0.0033 | 0.203 ± 0.028 | 0.295 ± 0.035 | 0.575 ± 0.044 | 0.399 ± 0.02
YILRLMMEGICL | 0.497 ± 0.012 | 0.545 ± 0.036 | 0.416 ± 0.033 | 0.48 ± 0.019 | 0.422 ± 0.038 | 0.409 ± 0.0083 | 0.464 ± 0.022 | 0.4198 ± 0.0029
YCSIQIQLVYGI | 0.341 ± 0.0037 | 0.4103 ± 0.0034 | 0.302 ± 0.025 | 0.441 ± 0.0063 | 0.301 ± 0.0082 | 0.312 ± 0.013 | 0.396 ± 0.011 | 0.424 ± 0.023
LFFFVFFVLFSV | 0.2271 ± 0.00037 | 0.204 ± 0.0057 | 0.218 ± 0.013 | 0.3319 ± 0.0017 | 0.304 ± 0.013 | 0.211 ± 0.023 | 0.303 ± 0.016 | 0.259 ± 0.075
TDVLLLQLLISV | 0.202 ± 0.021 | 0.228 ± 0.059 | 0.225 ± 0.028 | 0.338 ± 0.018 | 0.184 ± 0.007 | 0.219 ± 0.032 | 0.316 ± 0.0075 | 0.311 ± 0.012
DAGSSYRFFRFI | 0.693 ± 0.071 | 0.755 ± 0.011 | 0.661 ± 0.011 | 0.739 ± 0.0078 | 0.315 ± 0.0095 | 0.344 ± 0.01 | 0.578 ± 0.0081 | 0.425 ± 0.022
VFLSCFFVSWVV | 0.328 ± 0.019 | 0.403 ± 0.047 | 0.226 ± 0.027 | 0.40329 ± 5.2e-05 | 0.202 ± 0.011 | 0.204 ± 0.015 | 0.369 ± 0.03 | 0.3269 ± 0.0017
KYKANLGNLKVH | 0.596 ± 0.067 | 0.7161 ± 0.0013 | 0.632 ± 0.019 | 0.725 ± 0.029 | 0.0824 ± 0.011 | 0.0914 ± 0.05 | 0.101 ± 0.0031 | 0.135 ± 0.056
SWSLRLSTIFSV | 0.609 ± 0.11 | 0.664 ± 0.016 | 0.612 ± 0.025 | 0.667 ± 0.0072 | 0.189 ± 0.0053 | 0.219 ± 0.018 | 0.352 ± 0.022 | 0.367 ± 0.0041
VIAYSLLSWGDF | 0.308 ± 0.0034 | 0.341 ± 0.019 | 0.378 ± 0.04 | 0.319 ± 0.023 | 0.403 ± 0.029 | 0.371 ± 0.021 | 0.305 ± 0.016 | 0.371 ± 0.028
ARRGHNCAAVFL | 0.6953 ± 0.0068 | 0.7426 ± 0.0071 | 0.666 ± 0.026 | 0.7447 ± 0.0047 | 0.65 ± 0.022 | 0.663 ± 0.024 | 0.718 ± 0.0074 | 0.643 ± 0.3
VFSFLYHVVPVL | 0.4374 ± 0.0012 | 0.49 ± 0.013 | 0.36 ± 0.028 | 0.505 ± 0.01 | 0.324 ± 0.018 | 0.348 ± 0.024 | 0.4554 ± 0.0018 | 0.441 ± 0.01
RVFGWIEVEVEG | 0.5179 ± 0.001 | 0.565 ± 0.019 | 0.403 ± 0.023 | 0.5679 ± 0.0026 | 0.346 ± 0.018 | 0.386 ± 0.054 | 0.584 ± 0.007 | 0.489 ± 0.079
PPHRTLLQLRTN | 0.599 ± 0.072 | 0.728 ± 0.035 | 0.661 ± 0.022 | 0.727 ± 0.0085 | 0.169 ± 0.021 | 0.164 ± 0.02 | 0.313 ± 0.015 | 0.343 ± 0.18
AGAFRIVWWALR | 0.652 ± 0.034 | 0.6935 ± 0.00096 | 0.578 ± 0.027 | 0.711 ± 0.0098 | 0.586 ± 0.02 | 0.578 ± 0.015 | 0.68 ± 0.014 | 0.528 ± 0.073

Sequence | protein stability index (Saccharomyces cerevisiae [1]; [3]) | protein stability index (Saccharomyces cerevisiae [1]; [4]) | protein stability index (Saccharomyces cerevisiae [1]; [5]) | protein stability index (Saccharomyces cerevisiae [1]; [6]) | protein stability index (Saccharomyces cerevisiae [1]; [7]) | protein stability index (Saccharomyces cerevisiae [1]; [8]) | protein stability index (Saccharomyces cerevisiae [1]; [9]) | protein stability index (Saccharomyces cerevisiae [2])
QCSPGLPHAQGL | 0.692 ± 0.025 | 0.71 ± 0.015 | 0.634 ± 0.024 | 0.733 ± 0.014 | 0.657 ± 0.028 | 0.666 ± 0.039 | 0.708 ± 0.013 | 0.565 ± 0.15
GRGFVLSVAVVA | 0.404 ± 0.011 | 0.453 ± 0.031 | 0.395 ± 0.034 | 0.502 ± 0.0094 | 0.363 ± 0.0089 | 0.395 ± 0.021 | 0.467 ± 0.0049 | 0.435 ± 0.012
TYHRSYLLATVV | 0.49857 ± 0.00019 | 0.55 ± 0.08 | 0.378 ± 0.028 | 0.543 ± 0.016 | 0.181 ± 0.0023 | 0.224 ± 0.024 | 0.331 ± 0.00026 | 0.314 ± 0.025
RCCWWNAQAVWR | 0.725 ± 0.043 | 0.7494 ± 0.0045 | 0.638 ± 0.029 | 0.752 ± 0.0039 | 0.655 ± 0.016 | 0.631 ± 0.032 | 0.73 ± 0.023 | 0.578 ± 0.15
DVPLFLPLPVSV | 0.357 ± 0.035 | 0.357 ± 0.01 | 0.278 ± 0.032 | 0.452 ± 0.015 | 0.243 ± 0.0078 | 0.297 ± 0.021 | 0.3903 ± 0.0012 | 0.392 ± 0.0097
LRNYKCLRLLIC | 0.293 ± 0.009 | 0.476 ± 0.0082 | 0.394 ± 0.028 | 0.545 ± 0.022 | 0.0736 ± 0.0054 | 0.0688 ± 0.012 | 0.0753 ± 0.012 | 0.0682 ± 0.096
MYESIRILVNKV | 0.62 ± 0.015 | 0.707 ± 0.016 | 0.62 ± 0.022 | 0.697 ± 0.015 | 0.226 ± 0.0021 | 0.326 ± 0.038 | 0.491 ± 0.02 | 0.457 ± 0.052
GDFYCSSVVLVV | 0.401 ± 0.013 | 0.401 ± 0.036 | 0.332 ± 0.032 | 0.484 ± 0.018 | 0.278 ± 0.014 | 0.32 ± 0.031 | 0.445 ± 0.0082 | 0.306 ± 0.0044
TLKRCFRWCRTT | 0.492 ± 0.095 | 0.71 ± 0.05 | 0.672 ± 0.018 | 0.699 ± 0.0095 | 0.105 ± 0.0068 | 0.11 ± 0.011 | 0.157 ± 0.031 | 0.176 ± 0.0047
GVCWCVLFVVGC | 0.312 ± 0.012 | 0.417 ± 0.059 | 0.271 ± 0.027 | 0.484 ± 0.006 | 0.226 ± 0.012 | 0.259 ± 0.02 | 0.428 ± 0.052 | 0.359 ± 0.013
IVRSLFGYLCVV | 0.571 ± 0.0099 | 0.609 ± 0.0076 | 0.524 ± 0.015 | 0.633 ± 0.0095 | 0.427 ± 0.0099 | 0.437 ± 0.022 | 0.569 ± 0.0066 | 0.467 ± 0.037
ACSRKPIWVTWL | 0.666 ± 0.057 | 0.747 ± 0.0079 | 0.648 ± 0.023 | 0.732 ± 0.016 | 0.259 ± 0.0057 | 0.276 ± 0.058 | 0.51 ± 0.031 | 0.35 ± 0.065
VLFFCLVIYVGV | 0.187 ± 0.0071 | 0.23702 ± 9.6e-05 | 0.183 ± 0.015 | 0.29 ± 0.035 | 0.141 ± 0.015 | 0.187 ± 0.027 | 0.26 ± 0.0013 | 0.217 ± 0.018
FGVRRSFVVFVV | 0.3827 ± 0.00079 | 0.456 ± 0.011 | 0.337 ± 0.033 | 0.556 ± 0.0058 | 0.0834 ± 0.011 | 0.0934 ± 0.015 | 0.107 ± 0.014 | 0.191 ± 0.023
ALSGLARFIVCH | 0.308 ± 0.0074 | 0.358 ± 0.019 | 0.272 ± 0.043 | 0.4268 ± 0.0034 | 0.2054 ± 0.0015 | 0.243 ± 0.031 | 0.392 ± 0.016 | 0.428 ± 0.026
IFAVLVSGSFFF | 0.425 ± 0.018 | 0.541 ± 0.014 | 0.324 ± 0.051 | 0.545 ± 0.017 | 0.318 ± 0.0053 | 0.336 ± 0.041 | 0.509 ± 0.017 | 0.4288 ± 0.00067
LCRCPVGVFVLL | 0.516 ± 0.036 | 0.549 ± 0.031 | 0.39 ± 0.038 | 0.5395 ± 0.0021 | 0.356 ± 0.033 | 0.303 ± 0.035 | 0.469 ± 0.017 | 0.362 ± 0.012
FAVTRVHLACWG | 0.453 ± 0.049 | 0.464 ± 0.0047 | 0.368 ± 0.033 | 0.493 ± 0.0079 | 0.3297 ± 0.0031 | 0.369 ± 0.03 | 0.466 ± 0.022 | 0.4649 ± 0.0013
